Among the data in a protein production outcome set (Wang et al. 2014) are protein production values, retold here.
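Further: failed if final PepcDB status was selected cloned or expressed and not failed if soluble or beyond.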

This series in a line: label from the status in PepcDB records.
Take “MSYNNSYDVIILAGGLSKRFGADKCCFEVNSKTMLDRLLEQFDNPIVVSRSPRRIKKGILVIEKGEYEGPVKGVREGLKYVRRDRVFITGCDFPFLIKNLVDYVCSKPYDIVIPFDHRPQPLLACYSTELLNKNIDKINGLVELIELSSSVYFIGTEELLKIDPFLYSLININSIIDLIYRPIRIKTKSNFILRLEHHHHHH”: the protein production result was “failed”.
For “MTAANSERYALRLLGPFELTAPGGRRVEITSKKGIAVVAMLALSRDGARSRGWLQDRLWGSRRKAEAAGSLRRELSNLRKLLNADGAELLLSDRDRVRLRTDLIDIDLFVARSGRANGEFLEGLDISSERGFGEWLREQRDALVPPAQDVVVSAVTAGAGTLPTHIVDISTPPVGFAGRPAIAVLPFANATGDETLDYVAEGIGEELIVGLSRIRWLPVISRNSSFSFTESDDRKLIGQRLGAQYLVEGRLYRAYDSYGVSASLAEAITGYSLWSRRFTLQSPAAHDELVQFVNELVAQLESRIEHAEQIRIRGKRQDKLGVCDLIWRGRWHLNRLTRADSEMAQKLFAEALALDPDSPEALIQATAALAWSIWAGRQPQDQIQRMRKLSQQAMLADPDDGRGFMLAGIAEMWLRHPLEAKNLLRQAITLTPSLALAHAQLGGCFNLAGEPDRAIVQLKTAMRLSSNDPNIFYSLGELALAYTMLGQWPEAIEHATLALARRPAYWYAHVLKINALARIGQLDAARIACDELLAIKPNFSKRFLDWLPFVDRTWVDHFVQGLKMVPGRPSDWPERETHETAA”, the protein production result is “failed”.
Then “MTADKISPDMLRFERILAAPAATVWQYLVDPELRARWFMSGPTDLQVGGAFGLTMDHDRLSDEVVPTPDRYKPYVGHRWHERITRYEPPHLLAFTWEDGKAGEVTFALTEIDSGTTRLVLTHTGLRGSEDALNFGGGWHAHLAVLEKRIAGISIPDFWALHAVAEREMEIALVSEA”, with “failed”; and “MTAENSATPDYRRNVGAVADALLAHPGPIVVLSHENPDGDALGSVLGLSRALRTLGKTVLAPMTVPHYLSFLPQPGELTAPLESWPQGALAAVLDVDNNDPVRVAGADLTQFDGPVVNVDHHGTNLRRADAGVVDPSKPAAAMMVADVIDALGAPWSEAVATPLMLGLNTDTGNFAFDSVSAETFECAARLRAHGARIGWLNDQMRQNPQSYYLLLREVLGKLEFLHGGRVVQTRVDEEMLARAGATWEQVENYVSMLRNAEGAQLAVMAKDYGDRVKFSLRSRGPVSAQNIAVALGGGGHVPAAGATVISSYAEARARLDAAIEAELARVDAQATAE”, with “failed”.
On to “MTAHKQPEANETESLLEQVQALESEVRGVVKTQLQLAGMETRRAGESFVRMVAFAVLAACLAFTAWAVLVTAAVIAIVNSSVMSLTTALVIVAVAHLAAAFYIVRYIKRRSRDLLFAETSSSL”, for which the protein production result is given as “failed”.
For “MTAHPPRPELQIDIVSDVVCPWCIVGFRQLDQALAATGVLARLRWHPFELNPQMGPEGQNLREHIMEKYGSTPEQSAEARARLTAIGAELGFTFNFTDDSRIVNTFAAHQLLDWAEGQGRQHPLKQALFAAYFTDGRDVSDLSVLLDAVEAAGLDREAAQTALTSGAHQAPVREKQKFWAQHGISGVPSMVFGGKYLLTGAQGADTYAQVIQRCLAEAA” the value was “not failed”; for “MTALHDLPGTRLLALFARRELSPGEYYEHLLAHIQRWEPHLNALYRFDPQRVREQAAAATERWRKGQPKGPLDGLPVTIKELIATAGEPIPLGSAATALQPAPCDAPPAARLREAGAIVLAKTTVPDFGMLSSGLSSFHGVTRNPWNLANNTGGSSSGAAAAATAGYGPLHLGTDIGGSVRLPAGWCGLVGFKPSLGRIPIDPYYTGRCAGPMTRCMDDCLLLMRYLAQPDARDATSLPPEVLDWSAEPLSVRGLRVGLQLDPGCGLQPDAEIRAAIEAAARLFEEHGAQLRIVEPLMDRSLLDGLNDFWRARLWSELLLLDETRRARVLPYVHAWAEGGARVSGVDAVRGFNQTFEMRRRAARLFGEIDLLLTPTNQVEAFPADWASPLNDPQRPFEHIVFTVPWNMGEQPALSINCGFTAAGMPIGLQLVAPRFADTWLLRIGKTYEGWRGPIHGWP”, “failed”.
With “MTAMMTILGPVLMGAAFGFLLQRGKVTNCNVIENQFRLRDFTVLKVMGTAIVVGGIGVLLLVDTGNTKYYVKDANMLAIALGAALFGIGMVVYGYCPGTALGAIATGSIHALVGALGMVAGAILYALSFDWLKAHVLNVWALGKVRLPDVTNIPDIIWFAALAVGAGLFFWWIESVEAEQKRM”, the protein production entry is on record as “failed”.
Turning to “MTAPEETAPVSVRKPSKPDLWKDSLGRTATRALQILLILTLTVVAVFGLLQIRLLVIPVLIALILAAAIGPFVNMLRRRGWRGGLATGVAFLGLLIVLGGVITVIVMSVRSQWDELISQAAAGLDELESFLLTGPFPIDREQLNQAREAVVEFAQSSQVRSGAVTGLSVVTEFLAGASLVVVILFFFLKDGAKIWEFFLRPFKGRREAKLRRVGKRTMEVLGGYVRGTAIVALVDTVAIGAALLIMQVPLAIPLAIIVFIGAFIPLVGATVAGILAALVALVANGPIVALIVIIVVIAVNQLEGDLLQPVVMGKSLELHALVILMALTAGTILAGIIGAVLAVPIAAVTWAIIQVWTAEDPDLEPMNPELPPANSQPT”, the protein production entry was “failed”.
With “MTAPGSMPLTVIGGFLGAGKTTLLNYLLKVQHSERVLVMVNDFGSINIDAELLDQGRHDRPGVVRLQNGCVCCSIGGDLMQAFLQVMSMPDRPDRIIVEASGVADPTRIAQIGRVSGGLSDEGVITLVDASAVRTLAADKYVGDIVRQQILSADIVLLNKLDLSSDAEIVETRAWLRDLAPRTRVVSCIHGEVDAVSVLGIGAGKVAPDAAGGPVDVPVPDLRRASTRHADTFHSSTLATAHRFDRRRIEYALDALPQTVLRGKGFVELEGEATPALLQLCGSRWTLDPVSTPAPPAGTHLVFIATGGRGVPRFDAPSHFEQALASRDAASADTSNLEHHHHHH”, the protein production result was “not failed”.
As for “MTAPKVFVSHASEDKARFVVDFARRLRENGVDAWLDQWEMKPGDSLVDKIFEEGLREARAVVIVLSATSVRKPWVREELNASVVNRISRGTKLIPVVIDDCDVPEALRSTVLEHHHHHH”, the protein production entry was “failed”.
Then “MTAPKVFVSHASEDKARFVVDFARRLRENGVDAWLDQWEMKPGDSLVDKIFEEGLREARAVVIVLSATSVRKPWVREELNASVVNRISRGTKLIPVVIDDCDVPEALRSTVWQKIDNLDDYGESLQRILSVIFDVTDKPALGAPPARFAGPAPLIAGLSRVDDLVIRVIARRQIDEGAGLVEWDRLKAEPILRDVPQQELLDSLEILKRHDFIRVREVIGALHVVLTDLGFLKFAEAYVDDYQGTVNQIAALLVNENVRQNRELAARVNKPVAFIDFVLNLMESNGYIKVSKYIGGQSHVREVSASLRRALQSA”, with “failed”; and “MTAPRYPRDMIGYGATPPNANWPGNARIAVQIVLNYEEGGENNILHGDAASEAFLSEIVGAAPWPGQRHWNMETIYEYGARAGFWRLHRLMRDLPVTVYGVATALARSPDQVAAMKSAGWEIASHGLKWVEHKDMPEEEERAQIAEAIRLHTEVTGSRPRGWYTGRCSMNTVRLASEAGIDYIADTYDDDLPYWKRIDGRDQLIVPYTLDCNDMRFATPQGFNSGDQFFAYLKDSFDALYAEGGEGAPKMLSIGLHCRLIGRPGRVMALKRFLDYARGHEDVWFATRLQIAEHWVREHPPVARTRPSEMPKADFVAAYGGIFEHSPWIAERAHGLELGPAHDTAGGLHNALCRMFRSASAEERLGVLTAHPDLAGKLAQAKRLTAESTSEQASAGLDALTDEERTTFTRLNTEYVARFGFPFIIAVRDHDKASILAAFQRRIGNDRETEFAEACRQVERIAEFRLRDVLPSLEHHHHHH”, with “not failed”.
For “MTASDDAPISTDRFMFGRAQRWLHWSMALLIFAAIGLGIVAAYYPSGQQPRQGLLELHKSIGFTILALLVVRIVLRLISGEPPYRRPLGHLTEMAARAGHLALYGLMLLMPLSGYLFSGAGGYSLPWFGLFQWPRLVPRDHALSEWGQVLHDRGAWVLGAVLALHLAAVCWHQFVKRDEVLSRMTGRASES”, the protein production result is given as “failed”.
On to “MTASDQFNSTHSAVDQYAELVLHNGRMYTLDPAQPWADAVAIRQGKLIAVGSLASLASLIGPNTRQHDLDGAFCMPGLHDMHTHPDLALAPRYADDLDVGIEDPTPEQLAAAIHAYADSHPGDGWIYGQYWVRYTFREAGLTPGREWLDSVMPHRPVALLDRMWGTMMVNSKALELAGIDRHTSDPRNGYLERDELTGEPNGLLIDGAYALIHAAMPPTPVSVLRRAYRDGVHFQTSRGVTATKYVHVCENRLQALKELDDAGELTLRVEAAISWQDDIFPVRRRWELLSGERHFYRSARLSANAVKFHFDGTVEPKSSYLLTPWPEESSWRGKLNLTPEHITDMVVDMDKRGLRVIAHCTGDGASDVFLDAVAEARRRNGNSGIRHQCAHSTLLHPGNLKRFQALDVIAEFSPAAWYPTPFASGARSGYGQERLKRIYDFKGVLAAGGIAVFGTDWPVASIDPWLALETMVTRQNPWNQEPDTFGDPISLEQALQVATLNGAHAMGLEHLTGSLEAGKSADLIVLDRDLFAQGARNYIHHTQVQLTFVEGQLVYDRQGTFSDTPLQAVWEGLPPVIEGKE”, for which the protein production result was “failed”.
“MTAVETKKQYLTVFKEDGIAEIHLHINKSNSYDLEFYKEFNAAIDDIRFDPDIKVVIVMSDVPKFFSAGADINFLRSADPRFKTQFCLFCNETLDKIARSPQVYIACLEGHTVGGGLEMALACDLRFMGDEAGKIGLPEVSLGVLAGTGGTQRLARLIGYSRALDMNITGETITPQEALEIGLVNRVFPQAETRERTREYARKLANSATYAVSNIKLAIMNGKEMPLNVAIRYEGELQNLLFRSEDAKEGLSAFLEKRQPNWKGI”: the protein production entry is on record as “not failed”.
In the case of “MTAVSLGPSPARRDALARRIRLLVTATIGYNVVEAVVAITAGTIASSTALIGFGLDSVIEVSSAAAVAWQFSARDPAVREAREKRTLRIIAFSFFALALYVTVDSVRALTGTGEAGHSVPGIVLAGLSLAIMPFLSAAQRKAGREIGSASAVADSKQTLLCTYLSAVLLVGLLVNLLLGWTWADPVAALVISAIAVKEGRDAWQGRGCCAAPTWATPQAGADTDNCDCCS”, the protein production result is “failed”.
As for “MTCANCATDVIYMAERQNERDDRQKLKNISFAKKILLGLSMYVPSSTFKKIVLKLLGAHIGKNVYFGPGSLVLSNDYSSVYIENNVFVAPGVLINVNNFTVGENSHLGYQCLMVGESLKIGSRCNISNRTFIECSYSPILIEDDVTIGGCAMVSTHDGSYRQVYGLEMKAAPIYIRSKAFIGNNAIILPGIEIGRKVIVGAGAVVTKNAVANSVICGVPADKIRTMEVSNENITGN”, the protein production result is recorded as “failed”.
For “MTDDRYTVISADCHAGADLLDYRPYLAKRHHDAFDAWAATYVNPYEDLLADTADRNWNSERRLAELAADGIVAEVVFPNTIPPFFPSASLMAPAPTAAEFEQRWAGLRAHNRWLADFCAAAPGRRAGVFQILLNDVEEAVKEISWAAGAGLRGGLLLPGTPPGSGLPELYSKAYDPIWAVCEELDVPVNHHAGSASPPLGDEPAARAVFMVETTWFSHRALWHLVFGGAFRRHPGLRLVLTEQGSGWIPGVLDMLDYYHGRLVAAGPKSATAEAKFGAGLDRAMGKGPSEVWRDNCFVGASFMRPHEVPLRDRIGLDKIMWGSDYPHDEGTYPYSREGLRIAYAGLPRTEIAAMAGGNAARVYGFDLSLLDPIAAKVGPTVAELARPLEEPPADATSPVFARGGSVRVW” the value was “failed”; for “MTDFPTSLTAPKKGCEGCTGSPELGFSFDYAYQPIVNLHDQSIFAHEALVRGPNGEGAMSVLNQVTDQNRYRFDQKCRTTAIAGAAKLGMTERLSINFLPNAVYRPELCIRSTLEAAKQHDFPIERLIFETIESEHVDNNNHLSNILREYREFGFMTAIDDFGAGYSGLTLLADFQPDLIKLDMNLVRDIHRDRARQAIVRGVVTMCKDLGIKLIAEGIEHIEERDFLADCGISLMQGYLFAKPAFKALAQIAPEAWQKP”, “not failed”.
